system: TO-3-N3-2 (biotin conjugate); assay: pull-down binding Z-score (relative to library population); higher = stronger binding; settings: RNA library: Library-2
Method in brief: (§1)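 Biotin-conjugated small molecule (100 pmol) on streptavidin beads was incubated with 1 μg of heat-folded Cy5- or Cy3-end-labelled RNA library in phosphate/NaCl/KCl buffer at 25 °C for 60 min. Following three washes, RNA was eluted with hot SDS and hybridised at 55.5 °C for 20 h to a DNA barcode microarray. The binding value is a Z-score computed from the library mean and standard deviation, after subtraction of beads without compound and averaging of barcoded replicate probes with the highest and lowest excluded.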

Sequence	pull-down binding Z-score
GUAAGAGAGACUCUCGCUUCCUGC [hsa-mir-874]	-0.291
GUAGAUUGAAAGCCCUAAUUUUAC [hsa-mir-3941]	0.306
GUAGAUUUUAUGUCAC [hsa-mir-892b]	-0.156
GUAUACUGAGCUUAUGUAUGCAUCUGCAUAC [hsa-mir-5591]	0.0113
GUAUGAGUGCCACAGAGCCGUCAUAA [hsa-mir-9-3]	-0.231
GUAUGAGUGGUGUGGAGUCUUCAUAA [hsa-mir-9-1]	-0.08
GUAUGAGUGUAUUGGUCUUCAUAA [hsa-mir-9-2]	0.203
GUCACAAAUUCAAAUAAAGUGAG [hsa-mir-4693]	0.544
GUCACCAGCCCUCAUGUACUUGUGAC [hsa-mir-6820]	-0.289
GUCACUGUCUCAAAUCAGUGAC [hsa-mir-549a]	-0.427
GUCAGGAGUGGCUUUCCUGAC [hsa-mir-4462]	-0.271
GUCAGGUGAUGGUGAUAAGGUCAAGGCCUG [hsa-mir-6853]	-0.0266
GUCAGUCCCAAUCUGAAUCCCACCAAAAUAGGUGGUAGAGGGUUGC [hsa-mir-4290]	0.249
GUCAUUACUUUCAAUAGC [hsa-mir-548p]	-0.254
GUCAUUUCCCAUCACUAAUGGC [hsa-mir-6815]	-0.336
GUCAUUUUUCUGUGACUGCACAUGGC [hsa-mir-3136]	-0.15
GUCCAUUAGGCUUUGUUAUGGAAACUUCUCCUGAUC [hsa-mir-635]	0.607
GUCCCAAUACAUGUGGGCC [hsa-mir-586]	-0.158
GUCCGGGUGGGUUCCGGCA [hsa-mir-657]	1.29

system: TO-3-N3 (biotin conjugate); assay: as above; settings: RNA library: Library-2
Method in brief: as §1

Sequence	pull-down binding Z-score
GGGGCCCUACUUUAAGGGCCCU [hsa-mir-8087]	0.997
GGGGCCUGUGGUCCC [hsa-mir-1268a]	-0.0124
GGGGCUCUU [hsa-mir-4634]	0.0873
GGGGCUGAGGCUGAGUCUUCCUCCC [hsa-mir-6756]	0.154
GGGGCUGGCUGGGUCUGGUAGUGGGCAUCAGCUGGCCCU [hsa-mir-1207]	2.53
GGGGCUGGUUGUCUA [hsa-mir-6080]	0.297
GGGGGCAGGCAGGGGAUUGGCUAAGAACCUGACUCUUGC [hsa-mir-7703]	2.18
GGGGGCAGGCUGCCACCUCCUG [hsa-mir-8089]	1.5
GGGGGUGGCCGGGGCUGACCCU [hsa-mir-939]	2.48
GGGGUAGAAGCCACCCG [hsa-mir-4466]	0.149
GGGGUCUUGCUCUAUU [hsa-mir-6088]	0.523
GGGGUGGCUGCGGGCCUUCUGAAGGUCUCCC [hsa-mir-662]	0.427
GGGGUUUUUGCCUCCAACUGACUCC [hsa-mir-155]	-0.366
GGGUCAGGUCUGCAGCCUUGUAUCUGCUGAUCC [hsa-mir-6881]	-0.183
GGGUCAGUGGCAGAGCCAGGCAGAUGCUGACCC [hsa-mir-6832]	0.349
GGGUCCUAAGGUGUGUCCUC [hsa-mir-1976]	-0.224
GGGUCGUGGGAAAGUGUUGACCC [hsa-mir-4655]	0.166
GGGUGAGAGUGCUUUCUGAAUGCAGUGCACCC [hsa-mir-500b]	0.297
GGGUGAUACACAAGCCUGACCCUCCC [hsa-mir-6793]	0.244
GGGUGGGCGGGGGCGGCCGGUGGGAACCCCGCCCCGCCCCGCGCCCGCACUCACCC [hsa-mir-7108]	6.31
GGGUGUAUGGUAUAGGGGUAGCCU [hsa-mir-3137]	2.13
GGGUUCAAUAGAUUGCUUUAGCUGAAGCAAGCCU [hsa-mir-8054]	0.125
GGGUUGCAUCCUAAGCUGUGCUGGAGCUUCCC [hsa-mir-623]	0.567
GGUAAGGUCUUUCAGCC [hsa-mir-7150]	0.648
GGUACUUUAUAAUUUCAAAAAGUCCC [hsa-mir-361]	-1.13

Sequence	pull-down binding Z-score
GGUAGAGAUGAUUUUUCCUACU [hsa-mir-5003]	1.76
GGUAGGUUACGUCAUGCUGUUCUACC [hsa-mir-140]	-0.251
GGUAUGGAUUCUGUUGUUUUGGCAACAUUCU [hsa-mir-8088]	-0.382
GGUCAGGUGGUGCCCUCCUUCCAUGGGUAGAGCCAGAGAUGGUGGGUUCUGGCU [hsa-mir-6131]	0.869
GGUCUGAGCCCAUGUGUGGACCUAGGUCUGCUGUUAAACUGACU [hsa-mir-6831]	0.286
GGUGCAAAGCCUGCCCGCCCC [hsa-mir-5090]	-0.134
GGUGCAGUCAGUCCUAGCUC [hsa-mir-3135b]	-0.343
GGUGGCAAUCAAGGUCUAGCCACC [hsa-mir-4733]	0.369
GGUGGGCCUCUGCUCUGGCCCCUCC [hsa-mir-1343]	0.0146
GGUGGGGGCUCUGAGUGGGGAAAGUGGGGGCCUAGGGGAGGUCACAGU [hsa-mir-4259]	4.45
GGUGGGUGCC [hsa-mir-1268b]	-0.142
GGUGGGUGGGAAGUAAGAUCUGACCUGGACUCCAUCCCACCCACC [hsa-mir-4640]	4.87
GGUGGUUGUGGGAGUCACU [hsa-mir-4418]	1.58
GGUGUCAUGCCCCAAGAUAACC [hsa-mir-634]	-0.514
GGUGUCGAACUCAUGGCUGCCACC [hsa-mir-6782]	-0.346
GGUUCAAGUUUGGCUCCAUCUUUAUGAAA [hsa-mir-4506]	-0.0094
GGUUCCCACGCCGCGGCAACC [hsa-mir-6776]	0.0159
GGUUCUCAGUCAGAACC [hsa-mir-6813]	-0.0211
GGUUCUGGGGUGUAGACGCUGCUGGCCAGCC [hsa-mir-4707]	0.287
GGUUCUUCCCGAAGC [hsa-mir-4710]	-0.0117
GGUUGCUGGAGGUCAGC [hsa-mir-6871]	0.155
GGUUGGCCGCUGACCCCCGCGGGGCCCCCGGCGGCC [hsa-mir-3195]	-0.103
GGUUGGGGUGGGCUGCCUGUGGACCAAUC [hsa-mir-4525]	2.14
GGUUGUUAGAUAGACAACU [hsa-mir-4510]	0.632
GGUUGUUUAAUUAGGAACCAACU [hsa-mir-190b]	-0.247

Sequence	pull-down binding Z-score
GGUUUCCUUCGGGGCAGGUGGGGACUGCUCCUUUGGGAGGAAGGAGGAGGCC [hsa-mir-4453]	2.21
GGUUUCGGGCUGCC [hsa-mir-661]	0.148
GGUUUCUUAAAAUGGAAUCU [hsa-mir-1255b-1]	-0.382
GGUUUGCGCCUCAAGAAACC [hsa-mir-1255b-2]	-0.187
GGUUUUGCCAUCAUGCCAAAAGCU [hsa-mir-548v]	0.00688
GGUUUUUACCAUUAAAACC [hsa-mir-548aw]	-0.656
GUAAGAGAGACUCUCGCUUCCUGC [hsa-mir-874]	0.0696
GUAGAUUGAAAGCCCUAAUUUUAC [hsa-mir-3941]	-0.486
GUAGAUUUUAUGUCAC [hsa-mir-892b]	-0.000191
GUAUACUGAGCUUAUGUAUGCAUCUGCAUAC [hsa-mir-5591]	0.357
GUAUGAGUGCCACAGAGCCGUCAUAA [hsa-mir-9-3]	0.938
GUAUGAGUGGUGUGGAGUCUUCAUAA [hsa-mir-9-1]	0.179
GUAUGAGUGUAUUGGUCUUCAUAA [hsa-mir-9-2]	-0.226
GUCACAAAUUCAAAUAAAGUGAG [hsa-mir-4693]	1.05
GUCACCAGCCCUCAUGUACUUGUGAC [hsa-mir-6820]	0.335
GUCACUGUCUCAAAUCAGUGAC [hsa-mir-549a]	0.183
GUCAGGAGUGGCUUUCCUGAC [hsa-mir-4462]	0.414
GUCAGGUGAUGGUGAUAAGGUCAAGGCCUG [hsa-mir-6853]	-0.0611
GUCAGUCCCAAUCUGAAUCCCACCAAAAUAGGUGGUAGAGGGUUGC [hsa-mir-4290]	-0.204
GUCAUUACUUUCAAUAGC [hsa-mir-548p]	-0.59
GUCAUUUCCCAUCACUAAUGGC [hsa-mir-6815]	-0.674
GUCAUUUUUCUGUGACUGCACAUGGC [hsa-mir-3136]	-0.191
GUCCAUUAGGCUUUGUUAUGGAAACUUCUCCUGAUC [hsa-mir-635]	0.517
GUCCCAAUACAUGUGGGCC [hsa-mir-586]	-0.000511
GUCCGGGUGGGUUCCGGCA [hsa-mir-657]	1.07
